In the assay the target is …-Toyopearl (PTCH peptide, positive control). The experiment in a line: equilibrium adsorption on peptide resin.

Take “tandem WW domain of Yes-Associated Protein 1 (WW-YAP), soluble recombinant human protein (domain or fragment)”: the percent of the incubated protein bound was over 73%.

Source of the values: publication doi:10.1101/2020.08.13.249722.
